The source of these data is patent US20210024654A1 (AMPHIVENA THERAPEUTICS, published 2021).

Assay [1] deals with human CD3 (human, UniProt P07766 23-207). The experiment in a line: cell-based or functional assay.
Assay [2] concerns the target cynomolgus CD33 (cynomolgus). Put plainly: flow cytometry KDs on CHO cells, cyno CD33 / human CD33. (In general: Flow cytometry measures light scatter and fluorescence of single cells or particles in a stream.)

human CD3, sequence (P07766 23-207): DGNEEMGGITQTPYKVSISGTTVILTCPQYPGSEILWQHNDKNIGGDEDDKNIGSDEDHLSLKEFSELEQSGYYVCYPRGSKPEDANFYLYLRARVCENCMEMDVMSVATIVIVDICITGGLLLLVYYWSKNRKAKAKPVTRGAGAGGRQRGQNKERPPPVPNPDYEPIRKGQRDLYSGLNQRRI

B1: CD33/CD3 tandem diabody 20 (bispecific antibody)
chain: DIQMTQSPSSLSASVGDRVTITCRSSTGAVTTSNYANWVQQKPGKAPKGLIGGTNKRAPGVPSRFSGSLIGTDFTLTISSLQPEDFATYYCALWYSNLWVFGQGTKVEIKGGSGGSQVQLVQSGAEVKKPGASVKVSCKASGYTFTSYYMHWVRQAPGQGLEWMGIINPSGGSTSYAQKFQGRVTMTRDTSTSTVYMELSSLRSEDTAVYYCARDVVPAAIDYYGMDVWGQGTTVTVSSGGSGQSVLTQPPSASGTPGQRVTISCSGSSSNIGSNTVNWYQQLPGTAPKLLIYSDNQRPSGVPDRFSGSKSGSSASLAISGLQSDDEADYYCATWDDSLNGAVFGGGTKLTVLGGSGGSEVQLVESGGGLVQPGGSLRLSCAASGFTFSTYAMNWVRQAPGKGLEWVGRIRSKYNNYATYYADSVKDRFTISRDDSKNSLYLQMNSLKTEDTAVYYCARHGNFGNSYVSWFAYWGQGTLVTVSS
Turning to B1, the “T cell Proliferation in PBMC EC50” value in assay [1] came out at 0.038 nM. The KD ratio CynoCD33/huCD33 in assay [2] stood at 33.8.

B2: CD33/CD3 tandem diabody 18 (bispecific antibody)
chain: EVQLVESGGGLVQPGGSLRLSCAASGFTFSTYAMNWVRQAPGKGLEWVGRIRSKYNNYATYYADSVKDRFTISRDDSKNSLYLQMNSLKTEDTAVYYCARHGNFGNSYVSYFAYWGQGTLVTVSSGGSGGSQSVLTQPPSVSGAPGQRVTISCTGSSSNIGAGYDVHWYQQLPGTAPKLLIYGNSNRPSGVPDRFSGSKSGTSASLAITGLQAEDEADYYCQSYDSSLSDVVFGGGTKLTVLGGSGQVQLVQSGAEVKKPGESLKISCKGSGYSFTSYWIGWVRQMPGKGLEWMGIIYPGDSDTRYSPSFQGQVTISADKSISTAYLQWSSLKASDTAMYYCARHKRGSDAFDIWGQGTTVTVSSGGSGGSDIQMTQSPSSLSASVGDRVTITCRSSTGAVTTSNYANWVQQKPGKAPKALIGGTNKRAPGVPSRFSGSLIGDKATLTISSLQPEDFATYYCALWYSNLWVFGQGTKVEIKAAAGSHHHHHH
As for B2, the KD ratio CynoCD33/huCD33 in assay [2] amounted to 3.1.

B3: CD33/CD3 tandem diabody 17 (bispecific antibody)
chain: DIQMTQSPSSLSASVGDRVTITCRSSTGAVTTSNYANWVQQKPGKAPKALIGGTNKRAPGVPSRFSGSLIGDKATLTISSLQPEDFATYYCALWYSNLWVFGQGTKVEIKGGSGGSQVQLVQSGAEVKKPGESLKISCKGSGYSFTSYWIGWVRQMPGKGLEWMGIIYPGDSDTRYSPSFQGQVTISADKSISTAYLQWSSLKASDTAMYYCARHKRGSDAFDIWGQGTTVTVSSGGSGQSVLTQPPSVSGAPGQRVTISCTGSSSNIGAGYDVHWYQQLPGTAPKLLIYGNSNRPSGVPDRFSGSKSGTSASLAITGLQAEDEADYYCQSYDSSLSDVVFGGGTKLTVLGGSGGSEVQLVESGGGLVQPGGSLRLSCAASGFTFSTYAMNWVRQAPGKGLEWVGRIRSKYNNYATYYADSVKDRFTISRDDSKNSLYLQMNSLKTEDTAVYYCARHGNFGNSYVSYFAYWGQGTLVTVSSAAAGSHHHHHH
With B3, in assay [2], the KD ratio CynoCD33/huCD33 was 1.9.

B4: CD33/CD3 tandem diabody 19 (bispecific antibody)
chain: DIQMTQSPSSLSASVGDRVTITCRSSTGAVTTSNYANWVQQKPGKAPKALIGGTNKRAPGVPSRFSGSLIGDKATLTISSLQPEDFATYYCALWYSNLWVFGQGTKVEIKGGSGGSQVQLVQSGAEVKKPGASVKVSCKASGYTFTSYYMHWVRQAPGQGLEWMGIINPSGGSTSYAQKFQGRVTMTRDTSTSTVYMELSSLRSEDTAVYYCARDVVPAAIDYYGMDVWGQGTTVTVSSGGSGQSVLTQPPSASGTPGQRVTISCSGSSSNIGSNTVNWYQQLPGTAPKLLIYSDNQRPSGVPDRFSGSKSGSSASLAISGLQSDDEADYYCATWDDSLNGAVFGGGTKLTVLGGSGGSEVQLVESGGGLVQPGGSLRLSCAASGFTFSTYAMNWVRQAPGKGLEWVGRIRSKYNNYATYYADSVKDRFTISRDDSKNSLYLQMNSLKTEDTAVYYCARHGNFGNSYVSYFAYWGQGTLVTVSSAAAGSHHHHHH
Regarding B4, in assay [2], the KD ratio CynoCD33/huCD33 was found to be 37.3.
